Source: the supplement of paper PMC10567573

B1: KCNK9 (parent)
chain: CFITLTTIGFGDYVALQTKGALQK
B2: RTP4 (parent)
chain: TYWEHWTSQGQVRMRLFGQRCQKC

Variants of: B1
Test: protein stability index of a GFP-peptide fusion (GPS, HEK-293T) (PSI 1-6); higher = more stable
Conditions: c terminus: a fixed tail appended
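Further: lentivirally expressed fusions sorted by FACS into six bins by GFP to DsRed ratio, PSI derived from sequencing read proportions per bin multiplied by bin number.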

Protein stability index: each site, then its substitutions
T6: N 2.89; K 2.11; D 2.36; Y 2.71; P 1.21; R 2.85; V 3.1; Q 1.51; S 3.54; E 1.83; F 2.57; H 1.44; I 2.13; M 4.77; C 3.41; L 3.01; G 1.69
L5: F 3.73; C 3.26; M 2.65; I 3.75; E 2.38; N 2.12; T 1.57; S 1.6; D 2.42; Y 3.03; A 1.85; W 2.72; K 1.59; R 2.24; V 2.34; Q 2.07; G 2.48; H 1.77; P 2.17
I3: F 1.52; G 1.68; Y 2.82; Q 2.13; K 2.06; R 1.78; T 1.87; P 2.68; M 2.05; N 1.86; S 2.11; W 2.2; C 2.68; L 2.05; A 2.03; H 1.82; D 2.82; E 2.03
T7: I 3.49; R 2.44; K 1.73; E 2.94; N 1.78; F 3.36; S 2.53; H 2.63; M 2.54; V 2.77; A 4.42; P 2.32; L 3.38; Q 2.52; D 2.15
C1: L 4.01; R 2.57; T 3.37; N 2.2; G 1.26; S 2.4; I 3.52; W 3.09; E 2.02; H 3.02; P 1.66; A 2.27; M 3.33; D 1.57; Q 2.53; K 2.05
F2: N 1.61; C 2.23; M 1.43; L 3.17; T 2.04; V 2.51; G 2.02; P 2.5; E 1.02; Y 1.79; R 2.18; A 1.82; S 2.72; K 2.4; Q 1.82; D 1.99; H 2.03; I 2.62
T4: W 2.91; N 3.41; F 2.95; P 2.13; C 3.91; I 1.52; K 3.64; A 2.99; E 2.07; R 2.99; Q 1.99; S 3.03; G 2.63; V 2.25; M 3.53; D 2.54; H 2.23

Variants of: B2
Test: as above
Conditions: c terminus: a fixed tail appended

Protein stability index: each site, then its substitutions
C21: P 3.25; Q 2.12; Y 1.81; R 2.4; T 1.78
Q22: N 1.71; S 1.33; W 4.47; P 1.68; R 1.92; L 2.36; I 1.52; H 1.69; K 1.61; V 1.36; T 1.94; E 1.09; A 2.06
K23: R 1.4; D 1.79; P 1.65; Y 1.67; T 1.07; G 1.15; C 1.63; Q 1.92; A 2.52; E 1.79; S 1.48; H 1.1
C24: T 2.41; R 2.29; D 2.53; P 1.69; G 2.2; M 2.29; L 2.2; Y 2.15; N 2.22; A 2.31; V 2.03; F 2.78; H 2.07; W 1.54; K 3.24; Q 2.28; E 2.34
